According to patent publication US6969760 (ST JUDE CHILDREN S RESEARCH HOSPITAL, dated 2005):

How the values were obtained:
Assay in all cases: pull-down from DA3(EPOR) cell extracts on GST-EPOR cytoplasmic domain beads, immunoblot
murine Tec = target: T1, murine Tec (murine, UniProt P24604 1-630, limits assumed)
T1 sequence (looked up): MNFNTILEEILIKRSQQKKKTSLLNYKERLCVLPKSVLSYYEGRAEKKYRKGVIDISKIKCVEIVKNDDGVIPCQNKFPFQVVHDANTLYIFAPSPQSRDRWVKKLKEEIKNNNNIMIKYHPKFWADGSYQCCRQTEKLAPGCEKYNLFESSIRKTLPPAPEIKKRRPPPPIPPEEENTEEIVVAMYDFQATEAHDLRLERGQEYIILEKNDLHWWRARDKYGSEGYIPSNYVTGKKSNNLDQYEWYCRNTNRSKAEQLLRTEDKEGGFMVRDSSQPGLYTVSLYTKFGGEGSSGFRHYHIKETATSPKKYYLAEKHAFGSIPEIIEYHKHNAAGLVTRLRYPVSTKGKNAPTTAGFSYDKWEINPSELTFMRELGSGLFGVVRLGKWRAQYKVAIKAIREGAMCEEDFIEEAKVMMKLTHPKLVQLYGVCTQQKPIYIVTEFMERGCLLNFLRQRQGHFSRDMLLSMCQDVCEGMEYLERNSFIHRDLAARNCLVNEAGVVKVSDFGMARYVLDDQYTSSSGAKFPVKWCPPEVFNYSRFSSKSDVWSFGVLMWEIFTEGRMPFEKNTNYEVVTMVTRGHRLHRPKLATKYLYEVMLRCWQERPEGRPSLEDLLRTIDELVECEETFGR
Method: (§1) The fusion proteins were purified by affinity binding to glutathione-sepharose beads and the proteins, on affinity beads, were incubated with extracts of unstimulated or EPO stimulated DA3(EPOR) cells. The bound proteins were recovered from the beads, resolved on SDS-PAGE and the gels blotted to nitrocellulose. The blots were subsequently probed with antisera against various tyrosine kinases.

c-fes = c-fes (UniProt P16879 1-822)
Method: as §1

lyn = target: T2, lyn (UniProt P25911 2-512, limits assumed)
T2 construct: also called lyn kinase
Method: as §1

Measured: binding result

Sequence of c-fes (P16879 whole entry): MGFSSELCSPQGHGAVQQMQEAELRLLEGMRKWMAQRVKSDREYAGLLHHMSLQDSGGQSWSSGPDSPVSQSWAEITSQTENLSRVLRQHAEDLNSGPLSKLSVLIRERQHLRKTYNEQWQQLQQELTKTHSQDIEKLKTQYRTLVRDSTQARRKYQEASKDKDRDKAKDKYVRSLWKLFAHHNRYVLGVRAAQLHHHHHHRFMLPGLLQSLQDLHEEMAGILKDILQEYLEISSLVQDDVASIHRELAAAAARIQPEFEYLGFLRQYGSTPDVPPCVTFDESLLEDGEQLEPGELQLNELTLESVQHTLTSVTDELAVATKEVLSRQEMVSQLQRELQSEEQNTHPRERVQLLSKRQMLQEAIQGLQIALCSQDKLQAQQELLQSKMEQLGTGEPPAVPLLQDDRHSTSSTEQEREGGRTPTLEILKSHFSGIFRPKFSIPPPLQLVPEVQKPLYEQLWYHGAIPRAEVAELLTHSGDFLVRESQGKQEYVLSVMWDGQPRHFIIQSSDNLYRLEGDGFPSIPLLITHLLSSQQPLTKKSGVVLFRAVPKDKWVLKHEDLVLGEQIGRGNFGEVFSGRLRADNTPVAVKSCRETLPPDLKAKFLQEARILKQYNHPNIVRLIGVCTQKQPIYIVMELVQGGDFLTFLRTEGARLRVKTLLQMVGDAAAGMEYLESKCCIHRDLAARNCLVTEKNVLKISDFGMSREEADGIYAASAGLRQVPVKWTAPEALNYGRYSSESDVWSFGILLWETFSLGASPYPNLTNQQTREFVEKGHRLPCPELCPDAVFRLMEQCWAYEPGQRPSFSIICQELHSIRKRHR
T2 sequence (P25911 2-512 limits assumed): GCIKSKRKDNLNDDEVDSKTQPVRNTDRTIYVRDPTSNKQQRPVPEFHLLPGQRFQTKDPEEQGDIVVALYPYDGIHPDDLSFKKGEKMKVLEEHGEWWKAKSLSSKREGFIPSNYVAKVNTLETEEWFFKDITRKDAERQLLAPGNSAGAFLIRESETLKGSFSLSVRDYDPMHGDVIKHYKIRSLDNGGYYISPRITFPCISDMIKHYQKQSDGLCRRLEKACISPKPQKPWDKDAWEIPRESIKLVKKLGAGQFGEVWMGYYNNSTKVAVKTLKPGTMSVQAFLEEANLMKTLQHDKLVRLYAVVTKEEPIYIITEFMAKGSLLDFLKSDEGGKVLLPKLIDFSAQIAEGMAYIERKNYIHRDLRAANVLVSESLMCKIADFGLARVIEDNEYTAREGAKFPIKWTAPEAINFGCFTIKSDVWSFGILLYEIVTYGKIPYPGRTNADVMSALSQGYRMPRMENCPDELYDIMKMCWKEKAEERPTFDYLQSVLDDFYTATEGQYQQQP

B1: GST fusion protein containing the full length murine EPOR cytoplasmic domain (amino acids 257-483) (other, UniProt P14753 281-507, looked up)
chain: IWPGIPSPESEFEGLFTTHKGNFQLWLLQRDGCLWWSPGSSFPEDPPAHLEVLSEPRWAVTQAGDPGADDEGPLLEPVGSEHAQDTYLVLDKWLLPRTPCSENLSGPGGSVDPVTMDEASETSSCPSDLASKPRPEGTSPSSFEYTILDPSSQLLCPRALPPELPPTPPHLKYLYLVVSDSGISTDYSSGGSQGVHGDSSDGPYSHPYENSLVPDSEPLHPGYVACS
notes: range 257-483; Expressed in E. coli and immobilised on glutathione-sepharose; also called GST-EPOR fusion protein; fusion protein containing the complete cytoplasmic domain; not shown: amino-terminal glutathione-S-transferase (GST) domain encoded by pGEX-2T
no binding: all assays above
